The assay concerns the target vps29_human VPS29 (UniProt Q9UBQ0).

Consider “Vacuolar protein sorting-associated protein 35 (Homo sapiens) (from UniProt Q96QK1) F534D;F541D”, for which the “effect of a mutation on the interaction” value is listed as “disrupting interaction strength”.
In the case of “Vacuolar protein sorting-associated protein 35 (Homo sapiens) (from UniProt Q96QK1) H769A;N772A;H776A”, the “effect of a mutation on the interaction” value is “disrupting interaction strength”.
Take “Vacuolar protein sorting-associated protein 35 (Homo sapiens) (from UniProt Q96QK1) L579D;R582D;Q586A;L589D”: the “effect of a mutation on the interaction” value is given as “disrupting interaction strength”.
Under “Vacuolar protein sorting-associated protein 35 (Homo sapiens) (from UniProt Q96QK1) N725A;Y729A” stands “disrupting interaction strength”; under “Vacuolar protein sorting-associated protein 35 (Homo sapiens) (from UniProt Q96QK1) T629D;L630A;G633D;R637D”, “disrupting interaction strength”; under “Vacuolar protein sorting-associated protein 35 (Homo sapiens) (from UniProt Q96QK1) T672D;H675D”, “disrupting interaction strength”.

Source of the values: IntAct's records for PubMed 17891154.
